± gives the standard deviation of the averaged measurements.
test system: ATP; experiment: switch fluorescence ratio, 500 uM ATP over buffer (Cy3 cluster intensity, sum of 5 cycles each) (fold (ratio)); higher = stronger signal-on switching upon ATP binding; sequences stand for … in TCGTCGGCAGCGTCAGATGTGTATAAGAGACAGTTTTTTTTTTTTTTTTTTTTTTTTT…TC; conditions: aptamer strand: ATP DNA aptamer (quencher-CACCTGGGGGAGTATTGCGGAGGAAGG + anchor), 100 nM annealed; ATP concentration: 500 uM
Outline: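 Imaging in selection buffer was followed by imaging after 15 min with 500 uM ATP at 22 °C, for Cy3-labelled switching-strand clusters annealed to 100 nM quencher-labelled ATP aptamer on a modified Illumina MiSeq flow-cell. Five of these buffer/ATP cycles ran, separated by NaOH stripping and re-annealing. The fluorescence ratio per cluster is summed target-cycle over summed buffer-cycle Cy3 intensity, averaged per switch-domain sequence; clusters outside 100-1000 RFU were removed.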
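Further: ATP exposure 15 min at 22 °C before imaging.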

Row | Sequence | switch fluorescence ratio
1 | GGGAGGGTGA | 0.99 ± 0.025
2 | GGGAGGGTGT | 1.09 ± 0.02
3 | GGGAGGTCGG | 1.01 ± 0.025
4 | GGGAGGTTGT | 0.966 ± 0.028
5 | GGGAGTACGT | 1 ± 0.019
6 | GGGAGTAGCG | 0.997 ± 0.022
7 | GGGAGTAGGG | 0.998 ± 0.015
8 | GGGAGTATAG | 0.9907 ± 0.0089
9 | GGGAGTATAT | 0.992 ± 0.016
10 | GGGAGTCCAA | 0.995 ± 0.019
11 | GGGAGTCTTG | 0.987 ± 0.015
12 | GGGAGTGGGC | 0.87939 ± 0.00069
13 | GGGATAAAAT | 1.01 ± 0.017
14 | GGGATAATTT | 0.988 ± 0.017
15 | GGGATAGAGA | 1.02 ± 0.03
16 | GGGATAGATC | 1.05 ± 0.016
17 | GGGATATATT | 0.9914 ± 0.0074
18 | GGGATCAGCT | 1.006 ± 0.0046
19 | GGGATCCATG | 1.01 ± 0.019
20 | GGGATCGCTA | 1 ± 0.018
21 | GGGATCTGGT | 1.002 ± 0.0098
22 | GGGATGATAG | 0.959 ± 0.032
23 | GGGATGCCAA | 0.9794 ± 0.0018
24 | GGGATGCCCT | 1.01 ± 0.027
25 | GGGATGGATA | 1.03 ± 0.085
26 | GGGATGTTAA | 0.976 ± 0.038

Row | Sequence | switch fluorescence ratio
27 | GGGATGTTAT | 1.03 ± 0.014
28 | GGGATTGAAT | 1.01 ± 0.032
29 | GGGATTGAGC | 1.03 ± 0.041
30 | GGGATTGAGG | 1.01 ± 0.032
31 | GGGATTGTTG | 0.995 ± 0.041
32 | GGGATTTGAT | 0.98 ± 0.028
33 | GGGATTTTTA | 0.987 ± 0.018
34 | GGGCAAGGAT | 1.015 ± 0.0028
35 | GGGCAAGGCG | 1.006 ± 0.0092
36 | GGGCAAGGTT | 0.9682 ± 0.0065
37 | GGGCAATCGT | 1.021 ± 0.0063
38 | GGGCAATGAG | 1.09 ± 0.023
39 | GGGCACGTGG | 0.995 ± 0.035
40 | GGGCAGAAAG | 1.01 ± 0.075
41 | GGGCAGAGGC | 1.06 ± 0.029
42 | GGGCAGGCTG | 1 ± 0.023
43 | GGGCAGGTTC | 1.08 ± 0.085
44 | GGGCAGTTTT | 0.991 ± 0.023
45 | GGGCATAGAT | 1.03 ± 0.05
46 | GGGCATAGGA | 1.03 ± 0.097
47 | GGGCATATGG | 1.05 ± 0.015
48 | GGGCATCGGG | 0.991 ± 0.013
49 | GGGCATGAAT | 0.965 ± 0.016
50 | GGGCATGCAG | 0.966 ± 0.018
51 | GGGCATGCGT | 0.973 ± 0.042
52 | GGGCATGTTA | 0.9692 ± 0.0032

Row | Sequence | switch fluorescence ratio
53 | GGGCATTGAA | 0.9895 ± 0.0022
54 | GGGCATTGCG | 0.9667 ± 0.0091
55 | GGGCATTGTT | 1.02 ± 0.043
56 | GGGCCAGGGC | 1.02 ± 0.02
57 | GGGCCAGTGC | 1.03 ± 0.043
58 | GGGCCAGTTG | 1.0149 ± 0.00024
59 | GGGCCCGGGT | 0.994 ± 0.037
60 | GGGCCCTGGG | 0.994 ± 0.059
61 | GGGCCCTTTT | 0.976 ± 0.019
62 | GGGCCGGTTT | 1 ± 0.026
63 | GGGCCTGGTA | 0.973 ± 0.03
64 | GGGCCTTGAG | 1.031 ± 0.008
65 | GGGCCTTTAT | 1.017 ± 0.0089
66 | GGGCGATGGG | 1.02 ± 0.084
67 | GGGCGCCCCA | 0.976 ± 0.013
68 | GGGCGCCCCC | 1.08 ± 0.14
69 | GGGCGCGTAT | 1.03 ± 0.045
70 | GGGCGGGCTG | 1.006 ± 0.0084
71 | GGGCGGGTCT | 1.01 ± 0.046
72 | GGGCGGGTTG | 1 ± 0.0036
73 | GGGCGGTCTT | 1.06 ± 0.097
74 | GGGCGGTTTT | 0.993 ± 0.043
75 | GGGCGTAAGG | 1.01 ± 0.047
76 | GGGCGTGGTT | 0.965 ± 0.017
77 | GGGCGTGTTT | 1 ± 0.031
78 | GGGCGTTCTG | 1.04 ± 0.023

Row | Sequence | switch fluorescence ratio
79 | GGGCGTTTCA | 1.02 ± 0.02
80 | GGGCTAAAGA | 1.01 ± 0.013
81 | GGGCTAAGAG | 1.05 ± 0.038
82 | GGGCTAAGGC | 0.9923 ± 0.0037
83 | GGGCTAGGCT | 0.9684 ± 0.006
84 | GGGCTAGGGA | 0.972 ± 0.041
85 | GGGCTAGTGG | 1.02 ± 0.036
86 | GGGCTAGTTC | 1.05 ± 0.077
87 | GGGCTCCATG | 0.9825 ± 0.0044
88 | GGGCTGGATG | 0.9932 ± 0.0047
89 | GGGCTGGGTA | 0.993 ± 0.018
90 | GGGCTGGTTT | 0.981 ± 0.02
91 | GGGCTTAAGG | 0.97 ± 0.015
92 | GGGCTTGGAG | 1.012 ± 0.00086
93 | GGGCTTGGCT | 0.9851 ± 0.0065
94 | GGGGAAAAGG | 1 ± 0.017
95 | GGGGAAAATA | 1.007 ± 0.0048
96 | GGGGAAACAA | 0.99 ± 0.024
97 | GGGGAAACAT | 1.08 ± 0.013
98 | GGGGAAACGG | 1.06 ± 0.085
99 | GGGGAAGAGG | 0.983 ± 0.011
100 | GGGGAAGCCG | 1.01 ± 0.027
101 | GGGGAAGGTA | 0.978 ± 0.019
102 | GGGGAATAAG | 1.01 ± 0.053
103 | GGGGAATGCA | 1.01 ± 0.034
104 | GGGGAATGCG | 1.01 ± 0.0065

Row | Sequence | switch fluorescence ratio
105 | GGGGAATTAT | 1.03 ± 0.0058
106 | GGGGACAAGT | 1.0212 ± 0.00058
107 | GGGGACATAA | 0.997 ± 0.011
108 | GGGGACATGG | 1.07 ± 0.11
109 | GGGGACCGCG | 0.969 ± 0.016
110 | GGGGACCTAC | 1.08 ± 0.022
111 | GGGGACGAGG | 0.999 ± 0.028
112 | GGGGACGCTG | 0.98 ± 0.012
113 | GGGGACGGAT | 1.04 ± 0.052
114 | GGGGACTGTA | 1.04 ± 0.061
115 | GGGGAGATGT | 1.01 ± 0.014
116 | GGGGAGGGGG | 0.999 ± 0.044
117 | GGGGAGGTAG | 0.985 ± 0.014
118 | GGGGAGTAGG | 1.03 ± 0.049
119 | GGGGAGTAGT | 1.01 ± 0.024
120 | GGGGAGTTTA | 1.027 ± 0.0017
121 | GGGGAGTTTG | 1.01 ± 0.064
122 | GGGGATAACA | 1.028 ± 0.00063
123 | GGGGATAGAG | 1.01 ± 0.015
124 | GGGGATAGTG | 0.997 ± 0.011
125 | GGGGATATGC | 0.995 ± 0.048
126 | GGGGATGAAA | 0.989 ± 0.011
127 | GGGGATGCAT | 1.01 ± 0.059
128 | GGGGATGGGA | 1.01 ± 0.033
129 | GGGGATTAGT | 0.997 ± 0.043
130 | GGGGATTGAA | 0.994 ± 0.018

Row | Sequence | switch fluorescence ratio
131 | GGGGCAAGAT | 1.52 ± 0.78
132 | GGGGCACATT | 0.9885 ± 0.0046
133 | GGGGCAGACT | 1.03 ± 0.018
134 | GGGGCAGGAT | 1.22 ± 0.34
135 | GGGGCAGGGT | 1.03 ± 0.064
136 | GGGGCAGTAG | 1.04 ± 0.046
137 | GGGGCATAGG | 0.9777 ± 0.0015
138 | GGGGCCCATG | 0.992 ± 0.021
139 | GGGGCCGGCG | 1.08 ± 0.11
140 | GGGGCCGTTT | 0.973 ± 0.03
141 | GGGGCGACTA | 1.03 ± 0.052
142 | GGGGCGAGAG | 0.9939 ± 0.0046
143 | GGGGCGAGTG | 1 ± 0.035
144 | GGGGCGCAGG | 0.993 ± 0.011
145 | GGGGCGCCTG | 1.01 ± 0.048
146 | GGGGCGCGAC | 0.993 ± 0.085
147 | GGGGCGGATT | 0.984 ± 0.014
148 | GGGGCGGCCT | 0.979 ± 0.04
149 | GGGGCGGGCC | 0.971 ± 0.021
150 | GGGGCGGTCC | 1.04 ± 0.043
151 | GGGGCGTACG | 1.05 ± 0.2
152 | GGGGCGTCGT | 1.02 ± 0.029
153 | GGGGCGTCTG | 1.04 ± 0.06

— the supplement of paper PMC10126150
